Measured values from article PMC3782497, “Unique Structure and Dynamics of the EphA5 Ligand Binding Domain Mediate Its Binding Specificity as Revealed by X-ray Crystallography, NMR and MD Simulations” (PLoS ONE, 2013).
Bridge positions count the residues as written; N and C are the ends. Square brackets hold non-standard residues; d marks the D form. Primed or numbered codes have the meaning given here. Ends that are not written are not given here. PEG2′ = not defined here

B1: modified WDC peptide (WDCNGPYCHWLG-(PEG)2-KK), synthetic (peptide)
peptide: WDCNGPYCHWLG[PEG2′]KK
modifications: disulfide 3-8
notes: WDC peptide; two lysines joined to the peptide through (PEG)2, which is not an amino acid linker; also called synthetic WDC peptide; source: synthetic peptide (Anaspec, Inc.)
B2: WDC antagonistic peptide (WDCNGPYCHWLG), bacterially expressed (peptide)
peptide: WDCNGPYCHWLG
modifications: disulfide 3-8 (inferred)
notes: 12-residue peptide previously identified in a phage-display screen on the extracellular domain of rat EphA5; Cloned through BamHI into a modified pGEX-4T-1; also called WDC peptide; recombinant peptide; source: E. coli Rosetta-gami (DE3), GST fusion, released by in-gel thrombin cleavage, HPLC purified

Tests used:
rat EphA5 Fc = molecular target: T1, rat EphA5 Fc (rat, UniProt P54757 27-575); experiment: ELISA; rat EphA5 Fc (1 µg/mL) held on Protein A-coated wells; different concentrations of synthetic WDC with 0.6 nM ephrin-A5 AP for 1 hour; bound AP detected with pNPP; IC50 by non linear regression; details: both partners purified
T1 construct: EphA5, rat, Fc fusion; source: bought: R&D Systems

[1] = molecular target: human EphA5 ligand-binding domain (LBD), residues 59-235 (human, UniProt P54756 59-235, K232E (from the reverse primer; not stated by the paper) | C233A (from the …, disulfide bridges Cys137-Cys147 and Cys102-Cys220; 15N-labelled for the NMR titration); experiment: ITC
Target sequence in this assay (P54756 59-235 K232E/C233A): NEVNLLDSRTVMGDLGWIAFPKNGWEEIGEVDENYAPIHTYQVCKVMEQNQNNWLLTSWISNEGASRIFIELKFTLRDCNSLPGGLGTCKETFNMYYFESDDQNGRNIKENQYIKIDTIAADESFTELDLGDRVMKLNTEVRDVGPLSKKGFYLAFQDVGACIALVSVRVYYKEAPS

[2] = molecular target: T2, human EphA5 ligand-binding domain (LBD), residues 59-235 (human, UniProt P54756 59-235, K232E (from the reverse primer; not stated by the paper) | C233A (from the …, disulfide bridges Cys137-Cys147 and Cys102-Cys220; 15N-labelled for the NMR titration); experiment: ITC; EphA5 LBD in the cell, bacterially expressed WDC in the syringe; 10 mM phosphate buffer pH 6.3, 25°C; single binding site model; details: both partners purified
T2 construct: Cloned through BamHI into a modified pET32a and released by thrombin, so extra N-terminal residues (probably GS) may remain; also called EphA5 LBD; source: E. coli Rosetta-gami (DE3), purified (Ni-NTA, thrombin cleavage, gel filtration, Mono Q)
T2 sequence (P54756 59-235 K232E/C233A): as above

T1 sequence (P54757 27-575): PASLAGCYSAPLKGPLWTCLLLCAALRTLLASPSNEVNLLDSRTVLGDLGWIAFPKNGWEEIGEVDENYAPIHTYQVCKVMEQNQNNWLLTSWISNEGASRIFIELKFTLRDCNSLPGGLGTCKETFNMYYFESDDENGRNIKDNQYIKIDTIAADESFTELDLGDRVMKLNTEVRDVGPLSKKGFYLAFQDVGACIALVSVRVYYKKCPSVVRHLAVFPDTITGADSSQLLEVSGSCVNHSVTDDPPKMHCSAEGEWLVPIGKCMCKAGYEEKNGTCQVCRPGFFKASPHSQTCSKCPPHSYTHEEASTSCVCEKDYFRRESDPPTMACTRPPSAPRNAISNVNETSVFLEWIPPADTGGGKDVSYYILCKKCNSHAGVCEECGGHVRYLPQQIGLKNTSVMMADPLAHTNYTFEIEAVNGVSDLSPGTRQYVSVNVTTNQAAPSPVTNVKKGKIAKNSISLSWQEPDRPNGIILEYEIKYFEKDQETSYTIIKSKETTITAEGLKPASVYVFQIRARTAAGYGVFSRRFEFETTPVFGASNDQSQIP

Binder	IC50 (rat EphA5 Fc) [µM]	Ka [1] [M⁻¹]	Kd [2] [µM]
B1	~50		
B2		161000	6.2
